One test addresses T1, human GPR15 (human, UniProt P49685 1-360).
T1 sequence (looked up): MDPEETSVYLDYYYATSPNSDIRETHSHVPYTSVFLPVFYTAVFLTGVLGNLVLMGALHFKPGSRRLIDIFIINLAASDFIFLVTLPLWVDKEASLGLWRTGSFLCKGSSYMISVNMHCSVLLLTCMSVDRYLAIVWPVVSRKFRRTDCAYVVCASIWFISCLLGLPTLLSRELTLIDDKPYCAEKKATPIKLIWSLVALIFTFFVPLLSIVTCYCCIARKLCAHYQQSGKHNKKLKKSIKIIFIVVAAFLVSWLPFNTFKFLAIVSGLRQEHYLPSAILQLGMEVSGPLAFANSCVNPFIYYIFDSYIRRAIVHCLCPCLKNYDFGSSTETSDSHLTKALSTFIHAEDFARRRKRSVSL
Briefly: cell-based or functional assay.

Another test addresses T2, mouse GPR15 (mouse, UniProt Q0VDU3 1-360).
T2 sequence (looked up): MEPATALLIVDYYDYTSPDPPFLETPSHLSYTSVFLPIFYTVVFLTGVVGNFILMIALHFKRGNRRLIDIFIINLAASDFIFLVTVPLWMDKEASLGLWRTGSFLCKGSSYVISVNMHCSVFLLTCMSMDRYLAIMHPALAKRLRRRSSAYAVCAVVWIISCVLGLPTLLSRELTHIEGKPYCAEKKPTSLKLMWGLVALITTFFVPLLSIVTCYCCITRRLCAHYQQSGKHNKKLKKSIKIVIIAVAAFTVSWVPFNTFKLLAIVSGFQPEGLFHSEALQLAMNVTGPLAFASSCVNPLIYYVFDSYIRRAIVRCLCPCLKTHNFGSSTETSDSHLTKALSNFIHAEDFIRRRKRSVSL
Briefly: cell-based or functional assay.

B1: c10orf99 1-57, synthetic peptide KRRPAKAWSGRRTRLCCHRVPSPNSTNLKGHHVRLCKPCKLEPEPRLWVVPGALPQV (SEQ ID NO: 6) (ligand)
peptide: KRRPAKAWSGRRTRLCCHRVPSPNSTNLKGHHVRLCKPCKLEPEPRLWVVPGALPQV
Regarding B1, in the test with human GPR15, the “EC50 in in vitro cellular assays (aequorin assay; cAMP in CHO-GPR15 and HEK-GPR15 cell lines)” value was under 10 nM.

On to QKPQLWVVPGALPQV, for which the “EC50 of GPR15 activation, Aequorin assay (luminescence, calcium)” value with mouse GPR15 and with human GPR15 was about 2000 nM throughout.

Values taken from patent US20160274110A1 (Novartis, published 2016).
